Laboratory results taken from PMC12086086.

Key:
LC/MS = conditions: glycan lost; control: parental PANC-1
LIVE/DEAD staining = conditions: glycan lost; control: parental PANC-1
Western blot and qPCR = conditions: glycan lost; control: parental PANC-1
soft agar colony assay = conditions: glycan lost; control: parental PANC-1
[1] = low-attachment sphere assay; conditions: glycan lost; control: parental PANC-1
blot = conditions: glycan lost; control: wild-type RRM1
[2] = XTT viability, 3-day gemcitabine; conditions: glycan lost; control: parental PANC-1
[3] = nocodazole release, PI flow cytometry; conditions: glycan lost; control: parental PANC-1
[4] = γH2AX, 53BP1, RPA immunofluorescence foci; conditions: glycan lost; control: parental PANC-1

B1: ribonucleotide reductase large subunit M1 (RRM1): RRM1-T734A (protein)
parent chain: MHVIKRDGRQERVMFDKITSRIQKLCYGLNMDFVDPAQITMKVIQGLYSGVTTVELDTLAAETAATLTTKHPDYAILAARIAVSNLHKETKKVFSDVMEDLYNYINPHNGKHSPMVAKSTLDIVLANKDRLNSAIIYDRDFSYNYFGFKTLERSYLLKINGKVAERPQHMLMRVSVGIHKEDIDAAIETYNLLSERWFTHASPTLFNAGTNRPQLSSCFLLSMKDDSIEGIYDTLKQCALISKSAGGIGVAVSCIRATGSYIAGTNGNSNGLVPMLRVYNNTARYVDQGGNKRPGAFAIYLEPWHLDIFEFLDLKKNTGKEEQRARDLFFALWIPDLFMKRVETNQDWSLMCPNECPGLDEVWGEEFEKLYASYEKQGRVRKVVKAQQLWYAIIESQTETGTPYMLYKDSCNRKSNQQNLGTIKCSNLCTEIVEYTSKDEVAVCNLASLALNMYVTSEHTYDFKKLAEVTKVVVRNLNKIIDINYYPVPEACLSNKRHRPIGIGVQGLADAFILMRYPFESAEAQLLNKQIFETIYYGALEASCDLAKEQGPYETYEGSPVSKGILQYDMWNVTPTDLWDWKVLKEKIAKYGIRNSLLIAPMPTASTAQILGNNESIEPYTSNIYTRRVLSGEFQIVNPHLLKDLTERGLWHEEMKNQIIACNGSIQSIPEIPDDLKQLYKTVWEISQKTVLKMAAERGAFIDQSQSLNIHIAEPNYGKLTSMHFYGWKQGLKTGMYYLRTRPAANPIQFTLNKEKLKDKEKVSKEEEEKERNTAAMVCSLENRDECLMCGS
other: cellular NTP pools (LC/MS): decreases | other: cell death (LIVE/DEAD staining): no change | other: thymidine phosphorylase (TP) expression (Western blot and qPCR): decreases | other: colony formation (soft agar colony assay): decreases | other: sphere formation [1]: decreases | other: RRM1 serine/threonine phosphorylation (blot): decreases | other: gemcitabine sensitivity [2]: increases | other: S-phase duration [3]: increases | other: DNA damage and replication stress foci [4]: increases
